Experimental findings from publication PMC3123459 are described below.

This test deals with Acyl-CoA dehydrogenase from Mycobacterium thermoresistibile (Mycobacterium thermoresistibile). Put plainly: crystal structure.

“Acyl-CoA dehydrogenase from Mycobacterium thermoresistibile (enzyme)”: the stoichiometry N was determined as 4.
